Results on one molecule are retold here after article doi:10.1101/2022.01.26.477835 (bioRxiv, 2022).

In this test the target is His fused LCK (His-LCK) (human, UniProt P06239 1-509). Kind of test: pull-down.
Sequence of His fused LCK (His-LCK) (P06239 whole entry, the tested form may be a part): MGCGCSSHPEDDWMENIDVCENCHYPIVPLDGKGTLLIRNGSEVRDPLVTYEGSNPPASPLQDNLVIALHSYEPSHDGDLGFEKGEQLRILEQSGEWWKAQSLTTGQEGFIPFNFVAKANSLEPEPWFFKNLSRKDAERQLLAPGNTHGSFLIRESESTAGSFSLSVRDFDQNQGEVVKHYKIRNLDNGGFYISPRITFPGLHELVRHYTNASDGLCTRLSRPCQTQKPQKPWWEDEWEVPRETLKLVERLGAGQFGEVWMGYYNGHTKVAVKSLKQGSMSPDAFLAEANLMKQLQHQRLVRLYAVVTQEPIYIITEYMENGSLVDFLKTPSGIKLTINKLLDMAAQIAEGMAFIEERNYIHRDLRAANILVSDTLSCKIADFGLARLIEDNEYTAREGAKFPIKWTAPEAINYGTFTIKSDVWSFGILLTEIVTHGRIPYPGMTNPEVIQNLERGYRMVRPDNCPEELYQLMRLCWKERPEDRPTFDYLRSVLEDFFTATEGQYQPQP

B1: GST-tagged C-terminus of TRPM8 (GST-M8C) (domain or fragment, rat, UniProt Q8R455 980-1104, looked up)
chain: GYTVGIVQENNDQVWKFQRYFLVQEYCNRLNIPFPFVVFAYFYMVVKKCFKCCCKEKNTESSACCFRNEDNETLAWEGVMKENYLVKINTKANDNAEEMRHRFRQLDTKLNDLKGLLKEIANKIK
In the case of B1, the binding result is listed as “binds”.
